Test results reported in article PMC2913470.

Target: T1, p82 (r82; Teb1-like RPA1-related telomerase holoenzyme subunit p82) (Tetrahymena thermophila, UniProt D2CVN6 1-701)
T1 sequence: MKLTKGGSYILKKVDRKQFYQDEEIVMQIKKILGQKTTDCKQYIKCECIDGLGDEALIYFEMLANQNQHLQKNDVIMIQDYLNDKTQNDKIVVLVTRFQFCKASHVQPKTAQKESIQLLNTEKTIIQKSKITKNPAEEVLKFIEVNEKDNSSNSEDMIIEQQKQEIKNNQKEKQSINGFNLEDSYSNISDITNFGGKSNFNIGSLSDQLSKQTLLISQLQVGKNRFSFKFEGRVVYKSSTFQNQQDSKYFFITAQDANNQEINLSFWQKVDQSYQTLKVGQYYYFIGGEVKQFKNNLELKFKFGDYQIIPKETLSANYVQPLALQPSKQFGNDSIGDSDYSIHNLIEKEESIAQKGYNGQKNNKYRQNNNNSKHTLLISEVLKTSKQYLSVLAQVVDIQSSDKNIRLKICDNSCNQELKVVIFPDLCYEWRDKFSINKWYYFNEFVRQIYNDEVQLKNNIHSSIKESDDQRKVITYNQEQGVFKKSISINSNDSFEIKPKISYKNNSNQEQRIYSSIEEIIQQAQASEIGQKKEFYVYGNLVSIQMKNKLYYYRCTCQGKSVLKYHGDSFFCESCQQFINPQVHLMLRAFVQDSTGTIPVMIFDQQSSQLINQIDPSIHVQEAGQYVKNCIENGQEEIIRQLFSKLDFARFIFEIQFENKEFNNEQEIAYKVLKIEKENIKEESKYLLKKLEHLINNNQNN
Assay: EMSA

B1: dsTelo3 (dsDNA)
DNA 1: CCCCAACCCCAACCCCAA
DNA 2: TTGGGGTTGGGGTTGGGG
binding result: no binding
